We go through three substances from paper PMC5700061.

For assay [1], the target named is Furin-resistant mouse proBrain-Derived Neurotrophic Factor (proBDNF) (mouse) (UniProt P21237). The assay is described as follows: SPR; equilibrium binding, IBIS MX96; NGF, proNGF and proBDNF amine-coupled, s-sortilin as analyte; 25 mM MES pH 5.0, 150 mM NaCl, 0.005% Tween 20, 25 °C; 1:1 Langmuir model.
For assay [2] the target is unchanged. The experiment in a line: SPR; equilibrium binding, IBIS MX96; NGF, proNGF and proBDNF amine-coupled, s-sortilin as analyte; 25 mM HEPES pH 7.4, 150 mM NaCl, 0.005% Tween 20, 25 °C; 1:1 Langmuir model.
Assay [3] has as its target Mouse sortilin luminal segment (s-sortilin), wild type, native glycans (mouse). The assay is described as follows: SEC-MALS; Superdex 200 10/300 GL, 10 µl of 10 mg mL^-1 injected, 0.5 ml min^-1; 25 mM MES pH 5.0, 150 mM NaCl.
The target of assay [4] is Furin-resistant mouse proBrain-Derived Neurotrophic Factor (proBDNF) (mouse) (UniProt P21237). The experiment in a line: SPR; MX96 (IBIS); NGF, proNGF and proBDNF amine-coupled to a P-COOH SensEye sensor, s-sortilin flowed over as analyte; 25 mM MES pH 5.0, 150 mM NaCl, 0.005% Tween 20, 25 °C; equilibrium binding, 1:1 Langmuir model.
Assay [5] addresses Mouse Nerve Growth Factor (NGF) (mouse) (UniProt P01139). The description is as above.

Chain of Mouse Nerve Growth Factor (NGF) (mouse) (P01139 122-241): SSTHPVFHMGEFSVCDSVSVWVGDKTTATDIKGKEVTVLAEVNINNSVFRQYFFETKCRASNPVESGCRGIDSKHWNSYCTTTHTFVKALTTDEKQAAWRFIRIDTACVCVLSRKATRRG

“s-sortilin A464E (dimerization interface mutant of the mouse sortilin luminal segment) (domain or fragment)” gave a fold reduction of binding at pH 5.0 against pH 7.4 in assay [1] of 4 fold. The dissociation constant Kd in assay [2] was determined as 0.4 µM.
In assay [3], “Mouse sortilin luminal segment (s-sortilin), wild type, native glycans (domain or fragment)” came in with a stoichiometry N of 2.
As for “Mouse s-sortilin A464E, native glycans (domain or fragment)”, the figures for the Kd in assay [4] and in assay [5] were 2.28 µM and 0.73 µM, respectively.
